Experimental data as given in US20250011363A1, “OPTIMIZED SHORTENED PEPTIDE THAT BINDS TO ACETYLCHOLINE RECEPTOR, AND USE THEREOF” (SKINMED CO., LTD., priority 2021, published 2025).

These substances were tested against acetylcholine receptor (Homo sapiens, UniProt P02708) (assay: SPR binding affinity (RU) of optimized 5mer/6mer/7mer peptides, Examples 6-7). Details: 6mer-1 Top sequence; SPR; peptides tested at 10 μM.
Chain of acetylcholine receptor (P02708 21-457): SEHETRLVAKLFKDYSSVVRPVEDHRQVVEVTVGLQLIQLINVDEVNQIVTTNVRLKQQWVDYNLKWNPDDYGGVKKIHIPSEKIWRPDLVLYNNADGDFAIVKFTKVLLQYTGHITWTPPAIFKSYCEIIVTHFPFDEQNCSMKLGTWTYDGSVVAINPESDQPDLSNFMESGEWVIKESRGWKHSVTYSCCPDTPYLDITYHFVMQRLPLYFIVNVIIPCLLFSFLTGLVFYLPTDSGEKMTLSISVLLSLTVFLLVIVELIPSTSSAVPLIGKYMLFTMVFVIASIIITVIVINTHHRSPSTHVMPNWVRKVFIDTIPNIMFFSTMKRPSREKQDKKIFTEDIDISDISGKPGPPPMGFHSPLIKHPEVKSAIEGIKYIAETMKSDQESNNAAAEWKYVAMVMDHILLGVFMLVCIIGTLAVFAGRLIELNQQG
Description: Based on the frequencies of occurrence of the top 7 amino acids from Table 7 in Example 5, 600 peptides comprising these amino acids (top combinations) and those comprising the 13 less frequently occurring amino acids (bottom combinations) were synthesized for each series of 5mer, 6mer-1, and 6mer-2. The binding affinity of each sequence for the acetylcholine receptor was measured using Surface Plasmon Resonance (SPR) analysis method. The peptides were tested at a concentration of 10 μM. Additionally, the average binding affinities of the top and bottom combinations in each series are depicted in FIGS. 5-7.
Representative peptides identified in Example 6, two in each library, including 5mers (73, 311) and 6mers-1 (43, 210) and 6mers-2 (136, 233), were compared with the pre-optimized 6mer, 5mer-ND, and Synake.
6mer-1-259 (KRRYRK) gave a Binding affinity of 141 Ru.
With 6mer-1-376 (RRQLRK) the Binding affinity was 121 Ru.
6mer-1-255 (KKGFQK) was tested, and the Binding affinity was 139 Ru.
Substance 6mer-1-381 (RKGFYR) has a Binding affinity of 124 Ru.
Work on 6mer-1-387 (KKGRLR) yielded a Binding affinity of 148 Ru.
With 6mer-1-265 (RKSVCR) the Binding affinity was 145 Ru.
In the case of 6mer-1-314 (RRRILR), the Binding affinity was 141 Ru.
6mer-1-278 (KRQQTR) gave a Binding affinity of 142 Ru.
6mer-1-262 (RKQLQR) gave a Binding affinity of 139 Ru.

Same assay, conditions: 6mer-2 Top sequence; SPR; peptides tested at 10 μM
In the case of 6mer-2-45 (RSLTKK), the Binding affinity was 121 Ru.
Work on 6mer-2-93 (RWQTRR) yielded a Binding affinity of 133 Ru.
Work on 6mer-2-34 (KVFRRK) yielded a Binding affinity of 124 Ru.
6mer-2-182 (KLFYKK) showed a Binding affinity of 139 Ru.
6mer-2-55 (RLFYKK) gave a Binding affinity of 125 Ru.
With 6mer-2-91 (KWIYKR) the Binding affinity was 121 Ru.
6mer-2-116 (KLQRKK) gave a Binding affinity of 126 Ru.
For 6mer-2-98 (RRQQRR), the Binding affinity was 148 Ru.
For 6mer-2-38 (RSYYKR), the Binding affinity was 136 Ru.
In the case of 6mer-2-107 (RGVYRK), the Binding affinity was 144 Ru.
6mer-2-132 (KLYCKK) showed a Binding affinity of 139 Ru.
Substance 6mer-2-200 (RGVQRK) has a Binding affinity of 121 Ru.

Same assay, conditions: SPR, Resonance Units; 5mer Bottom sequence (bottom combinations); peptides tested at 10 μM
5mer-1029 (KADIK) showed a Binding affinity of 25 Ru.
5mer-994 (KAWVR) gave a Binding affinity of 26 Ru.
5mer-705 (RHAKK) showed a Binding affinity of 15 Ru.
Substance 5mer-933 (RYMKK) has a Binding affinity of 27 Ru.
Work on 5mer-1001 (KPCGK) yielded a Binding affinity of 33 Ru.
5mer-809 (RKSGK) gave a Binding affinity of 15 Ru.
5mer-771 (RKWVK) gave a Binding affinity of 24 Ru.
5mer-602 (KMSVR) gave a Binding affinity of 12 Ru.
For 5mer-801 (KFHGR), the Binding affinity was 20 Ru.
For 5mer-666 (RHDWR), the Binding affinity was 18 Ru.
In the case of 5mer-763 (RCHVR), the Binding affinity was 30 Ru.
For 5mer-786 (RFNKK), the Binding affinity was 29 Ru.
In the case of 5mer-788 (KYHGK), the Binding affinity was 16 Ru.

Same assay, conditions: SPR, Resonance Units; peptides tested at 10 μM; 6mer-1 Bottom sequence
With 6mer-1-1032 (KKTSMR) the Binding affinity was 27 Ru.
Work on 6mer-1-1154 (RKCEKR) yielded a Binding affinity of 41 Ru.
For 6mer-1-1030 (KKFCFR), the Binding affinity was 30 Ru.
For 6mer-1-1079 (RKHPVK), the Binding affinity was 25 Ru.
With 6mer-1-1126 (RRHCDK) the Binding affinity was 41 Ru.
In the case of 6mer-1-1117 (KKEWFR), the Binding affinity was 40 Ru.

Same assay, conditions: SPR, Resonance Units; peptides tested at 10 μM; 6mer-1 Bottom sequence (Table 11)
With 6mer-1-786 (KRIKEK) the Binding affinity was 26 Ru.
In the case of 6mer-1-725 (KKDKPK), the Binding affinity was 32 Ru.
6mer-1-705 (KRTEWR) gave a Binding affinity of 12 Ru.
Substance 6mer-1-639 (KRPNVR) has a Binding affinity of 24 Ru.

Same assay, conditions: SPR, Resonance Units; peptides tested at 10 μM; 6mer-2 Bottom sequence
6mer-2-894 (RFHWRR) showed a Binding affinity of 22 Ru.
With 6mer-2-685 (KFHNRK) the Binding affinity was 15 Ru.
6mer-2-712 (KIPHRR) was tested, and the Binding affinity was 29 Ru.
6mer-2-681 (RDTWRR) was tested, and the Binding affinity was 33 Ru.
6mer-2-744 (KDHPRK) gave a Binding affinity of 19 Ru.
6mer-2-722 (RNEHRR) was tested, and the Binding affinity was 21 Ru.
In the case of 6mer-2-888 (RIAKRK), the Binding affinity was 17 Ru.
Substance 6mer-2-797 (RHCIKR) has a Binding affinity of 19 Ru.
In the case of 6mer-2-817 (KCNDKK), the Binding affinity was 22 Ru.
Work on 6mer-2-802 (KETKRR) yielded a Binding affinity of 24 Ru.
In the case of 6mer-2-675 (RMKWRK), the Binding affinity was 14 Ru.
For 6mer-2-840 (KDWDRK), the Binding affinity was 15 Ru.
6mer-2-728 (RMTMKK) showed a Binding affinity of 23 Ru.
Work on 6mer-2-717 (KCPGKR) yielded a Binding affinity of 15 Ru.
6mer-2-656 (KADPRR) showed a Binding affinity of 11 Ru.
6mer-2-970 (KDDVRR) showed a Binding affinity of 27 Ru.
6mer-2-907 (RTMNRR) gave a Binding affinity of 25 Ru.

Same assay, conditions: SPR, Resonance Units; peptides tested at 10 μM; 6mer-2 Top sequence
6mer-2-550 (RSFTKK) was tested, and the Binding affinity was 148 Ru.
6mer-2-403 (KGVLRK) gave a Binding affinity of 123 Ru.
In the case of 6mer-2-428 (KVFLKK), the Binding affinity was 142 Ru.
In the case of 6mer-2-493 (KGVRRK), the Binding affinity was 123 Ru.
For 6mer-2-411 (RSRQKK), the Binding affinity was 121 Ru.
For 6mer-2-547 (RWQCKR), the Binding affinity was 135 Ru.

Same assay, conditions: SPR, Resonance Units; peptides tested at 10 μM; 6mer-2 Top sequence (Table 12)
Substance 6mer-2-339 (KQVYKK) has a Binding affinity of 151 Ru.
With 6mer-2-254 (KRIQRR) the Binding affinity was 148 Ru.
For 6mer-2-379 (RGVQKR), the Binding affinity was 127 Ru.
Substance 6mer-2-374 (KRQLKK) has a Binding affinity of 125 Ru.
In the case of 6mer-2-246 (KWISKK), the Binding affinity was 123 Ru.
6mer-2-308 (KGISKR) gave a Binding affinity of 148 Ru.
With 6mer-2-302 (KQICKK) the Binding affinity was 148 Ru.
With 6mer-2-251 (KSQTKR) the Binding affinity was 142 Ru.
Work on 6mer-2-212 (KWQLRR) yielded a Binding affinity of 148 Ru.
With 6mer-2-321 (KLVSRK) the Binding affinity was 139 Ru.
6mer-2-337 (KQFQKK) gave a Binding affinity of 142 Ru.

Same assay, conditions: SPR, peptides at 10 μM; 6mer-2 Bottom sequence
For 6mer-2-1166 (KCSIKK), the Binding affinity was 26 Ru.
6mer-2-1172 (KNCERR) was tested, and the Binding affinity was 36 Ru.
With 6mer-2-1124 (RKTWRK) the Binding affinity was 39 Ru.
In the case of 6mer-2-1066 (KPEHKR), the Binding affinity was 29 Ru.
6mer-2-1183 (RENNRK) was tested, and the Binding affinity was 35 Ru.
6mer-2-1136 (KMKKKR) gave a Binding affinity of 36 Ru.
6mer-2-1093 (KTTDKK) gave a Binding affinity of 43 Ru.

Same assay, conditions: SPR, peptides tested at 10 μM; 5mer Top sequence
For 5mer-490 (RWLLK), the Binding affinity was 60 Ru.
Substance 5mer-126 (RGVTK) has a Binding affinity of 61 Ru.
In the case of 5mer-202 (KWYRR), the Binding affinity was 65 Ru.
5mer-208 (KLICR) showed a Binding affinity of 80 Ru.
With 5mer-114 (KRQRR) the Binding affinity was 82 Ru.
Work on 5mer-185 (RRYRR) yielded a Binding affinity of 86 Ru.
For 5mer-453 (KGVCR), the Binding affinity was 68 Ru.
Substance 5mer-84 (RVVRR) has a Binding affinity of 67 Ru.
5mer-103 (RWFLK) showed a Binding affinity of 62 Ru.
5mer-375 (KQLCR) showed a Binding affinity of 84 Ru.
Substance 5mer-504 (KQIQR) has a Binding affinity of 72 Ru.
5mer-160 (RSIRR) showed a Binding affinity of 53 Ru.
In the case of 5mer-49 (KWRTR), the Binding affinity was 62 Ru.
In the case of 5mer-36 (RRLQK), the Binding affinity was 60 Ru.

Same assay, conditions: SPR, peptides tested at 10 μM; 5mer Top sequence (top combinations)
5mer-590 (KQYTK) showed a Binding affinity of 81 Ru.
Work on 5mer-512 (RLYLK) yielded a Binding affinity of 70 Ru.
Substance 5mer-280 (KWILK) has a Binding affinity of 53 Ru.
5mer-218 (KVQYK) was tested, and the Binding affinity was 80 Ru.
5mer-257 (RQFTR) was tested, and the Binding affinity was 85 Ru.
Substance 5mer-251 (KRISK) has a Binding affinity of 70 Ru.

Same assay, conditions: SPR, peptides tested at 10 μM; 6mer-1 Bottom sequence
6mer-1-1199 (KKTNKR) gave a Binding affinity of 39 Ru.

Same assay, conditions: SPR, peptides tested at 10 μM; 6mer-1 Bottom sequence (Table 11)
6mer-1-933 (RRPWNR) gave a Binding affinity of 28 Ru.
6mer-1-840 (RKICNK) was tested, and the Binding affinity was 12 Ru.
6mer-1-917 (KRADDK) showed a Binding affinity of 27 Ru.
In the case of 6mer-1-866 (KRCHFR), the Binding affinity was 26 Ru.
Substance 6mer-1-901 (RKPNGR) has a Binding affinity of 35 Ru.
Work on 6mer-1-981 (RKDDKK) yielded a Binding affinity of 27 Ru.
6mer-1-997 (KKPTFR) showed a Binding affinity of 35 Ru.

Same assay, conditions: SPR, peptides tested at 10 μM; 6mer-1 Top sequence
In the case of 6mer-1-541 (RKWFTR), the Binding affinity was 136 Ru.
6mer-1-521 (RKVISR) showed a Binding affinity of 128 Ru.
6mer-1-411 (RRQRSR) gave a Binding affinity of 121 Ru.
6mer-1-498 (RKRQQK) was tested, and the Binding affinity was 139 Ru.
6mer-1-519 (KRRQCK) was tested, and the Binding affinity was 147 Ru.
6mer-1-510 (KRRQSR) showed a Binding affinity of 122 Ru.

Same assay, conditions: SPR, peptides tested at 10 μM; 6mer-1 Top sequence (top combinations)
6mer-1-108 (RRLLLR) was tested, and the Binding affinity was 139 Ru.
Substance 6mer-1-107 (KKQRSR) has a Binding affinity of 131 Ru.
In the case of 6mer-1-5 (KRQIRK), the Binding affinity was 135 Ru.
For 6mer-1-38 (RRQQTK), the Binding affinity was 126 Ru.
6mer-1-15 (KRQICK) showed a Binding affinity of 123 Ru.
6mer-1-178 (RKRYQK) was tested, and the Binding affinity was 139 Ru.
Work on 6mer-1-194 (RKWQRR) yielded a Binding affinity of 144 Ru.
For 6mer-1-13 (KRQIQR), the Binding affinity was 147 Ru.
With 6mer-1-181 (KKGVLR) the Binding affinity was 148 Ru.
For 6mer-1-79 (KRLFCK), the Binding affinity was 137 Ru.

Same assay, conditions: SPR; XRRGVRR-7mer and RRGVRRX-7mer
With 3655 (QRRGVRR) [compound 3655] the “Binding affinity, values relative to the RRGVRR sequence” value was 101.
In the case of 3675 (RRGVRRQ) [compound 3675], the “Binding affinity, values relative to the RRGVRR sequence” value was 105.
For 3677 (RRGVRRR) [compound 3677], the “Binding affinity, values relative to the RRGVRR sequence” value was 188.

Same assay, conditions: SPR; XRRQRR-6mer and RRQRRX-6mer
For 3635 (RRQRRQ) [compound 3635], the “Binding affinity, relative value to the RRQRR sequence” value (from here on “Binding affinity, relative value”) was 101.
With 3617 (RRRQRR) [compound 3617] the “Binding affinity, relative value” value was 189.
For 3613 (YRRQRR) [compound 3613], the “Binding affinity, relative value” value was 130.

Same assay, conditions: SPR; peptides tested at 10 μM; 5mer Bottom sequence
In the case of 5mer-1124 (KKPVK), the Binding affinity was 30 Ru.
Work on 5mer-819 (RNTIK) yielded a Binding affinity of 19 Ru.
With 5mer-1178 (RFDNR) the Binding affinity was 22 Ru.
In the case of 5mer-1176 (KIHFK), the Binding affinity was 25 Ru.
Substance 5mer-894 (KMSPR) has a Binding affinity of 18 Ru.
Substance 5mer-1172 (KIWWR) has a Binding affinity of 25 Ru.
For 5mer-1122 (RNTDR), the Binding affinity was 14 Ru.
